The target of experiment [1] is T1, MBP-PABPN1-HA-(His)6 (mouse).
T1 sequence (Q8CCS6 whole entry, looked up): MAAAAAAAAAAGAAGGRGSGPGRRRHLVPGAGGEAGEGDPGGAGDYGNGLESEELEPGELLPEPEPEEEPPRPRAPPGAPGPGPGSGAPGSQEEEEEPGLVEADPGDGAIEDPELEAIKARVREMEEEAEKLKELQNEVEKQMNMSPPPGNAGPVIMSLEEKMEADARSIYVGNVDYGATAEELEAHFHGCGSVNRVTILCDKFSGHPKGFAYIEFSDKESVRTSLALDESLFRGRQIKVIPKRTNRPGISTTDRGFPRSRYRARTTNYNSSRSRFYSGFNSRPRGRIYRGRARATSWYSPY
The experiment can be described thus: pull-down; MBP-PABPN1 immobilised on amylose resin and incubated with (His)6-PAP-myc and GST-TTP together; blots with anti-GST and anti-myc quantitated; oligo(A)12 added to some samples.

The next experiment deals with T2, hexahistidine-PAP-myc (UniProt Q61183-1 1-739).
T2 construct: poly(A) polymerase (PAP), NM_011112, in a pQE expression vector; also called (His)6-PAP-myc; poly(A) polymerase; source: bacterially expressed (E. coli STBL2 or Rosetta(DE3)pLacI), purified; not shown: His6, N-terminal, kept; myc, C-terminal, kept
T2 sequence (Q61183 whole entry): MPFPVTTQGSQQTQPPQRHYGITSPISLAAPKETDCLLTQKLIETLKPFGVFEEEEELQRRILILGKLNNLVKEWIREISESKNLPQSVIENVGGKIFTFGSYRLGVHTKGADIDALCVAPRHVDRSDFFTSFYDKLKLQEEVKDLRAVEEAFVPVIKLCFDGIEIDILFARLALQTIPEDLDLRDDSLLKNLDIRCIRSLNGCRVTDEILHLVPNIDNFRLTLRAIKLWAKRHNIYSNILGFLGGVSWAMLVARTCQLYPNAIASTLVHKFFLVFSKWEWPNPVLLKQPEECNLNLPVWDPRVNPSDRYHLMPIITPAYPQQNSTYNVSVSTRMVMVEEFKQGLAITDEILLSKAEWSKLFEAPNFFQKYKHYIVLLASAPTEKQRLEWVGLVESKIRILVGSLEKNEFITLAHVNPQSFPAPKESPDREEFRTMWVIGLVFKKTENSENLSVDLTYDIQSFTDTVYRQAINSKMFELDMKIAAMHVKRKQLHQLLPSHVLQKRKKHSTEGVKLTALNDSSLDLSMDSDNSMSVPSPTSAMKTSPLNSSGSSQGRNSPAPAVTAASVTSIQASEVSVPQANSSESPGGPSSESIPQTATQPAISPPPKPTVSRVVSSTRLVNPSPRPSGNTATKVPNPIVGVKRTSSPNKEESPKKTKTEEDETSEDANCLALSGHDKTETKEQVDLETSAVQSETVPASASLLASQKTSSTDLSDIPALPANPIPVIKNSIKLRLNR
The experiment in a line: co-IP; 0.5 µg bacterially expressed GST-TTP construct and 0.5 µg (His)6-PAP-myc with anti-myc agarose in 10 mM Tris pH 7.0, 0.15 M NaCl, 1 mM MgCl2, 0.7 mM ZnCl2, 0.1% NP-40, 4°C overnight; blots with anti-myc and anti-GST. As to conditions: both partners purified.

A further experiment deals with (His)6-PABPN1 (mouse) (UniProt O35445).

Take “hexahistidine-PAP-myc (from UniProt Q61183-1 1-739) (enzyme)”: in experiment [1], the fold change of PAP pulled down with GST-TTP present, against PAP alone is 4 fold.

B1: GST-TTP@2-186 (domain or fragment, mouse, UniProt P22893 2-186, looked up)
chain: DLSAIYESLQSMSHDLSSDHGGTESLGGLWNINSDSIPSGVTSRLTGRSTSLVEGRSCGWVPPPPGFAPLAPRPGPELSPSPTSPTATPTTSSRYKTELCRTYSESGRCRYGAKCQFAHGLGELRQANRHPKYKTELCHKFYLQGRCPYGSRCHFIHNPTEDLALPGQPHVLRQSISFSGLPSGR
notes: source: E. coli STBL2 or Rosetta(DE3)pLacI, purified (glutathione-agarose); not shown: GST, N-terminal, kept
With B1, the binding result with hexahistidine-PAP-myc was “binds”.

B2: GST-TTP@95-158 (domain or fragment, mouse, UniProt P22893 95-158, looked up)
chain: RYKTELCRTYSESGRCRYGAKCQFAHGLGELRQANRHPKYKTELCHKFYLQGRCPYGSRCHFIH
notes: also called TZF construct; TZF domain; source: E. coli STBL2 or Rosetta(DE3)pLacI, purified (glutathione-agarose); not shown: GST, N-terminal, kept
As to B2, the binding result in the experiment with hexahistidine-PAP-myc was “binds”.

B3: GST-TTP@95-158(F118N) (domain or fragment, mouse, UniProt P22893 95-158, looked up)
chain: RYKTELCRTYSESGRCRYGAKCQNAHGLGELRQANRHPKYKTELCHKFYLQGRCPYGSRCHFIH
notes: as for B1
B3: the binding result with hexahistidine-PAP-myc is “binds”.

B4: GST-TTPΔ95–158 (natural protein, mouse, UniProt P22893 2-319, looked up)
chain: DLSAIYESLQSMSHDLSSDHGGTESLGGLWNINSDSIPSGVTSRLTGRSTSLVEGRSCGWVPPPPGFAPLAPRPGPELSPSPTSPTATPTTSSNPTEDLALPGQPHVLRQSISFSGLPSGRRSSPPPPGFSGPSLSSCSFSPSSSPPPPGDLPLSPSAFSAAPGTPVTRRDPNQACCPSCRRSTTPSTIWGPLGGLARSPSAHSLGSDPDDYASSGSSLGGSDSPVFEAGVFGPPQTPAPPRRLPIFNRISVSE
notes: also called TZF domain-deleted TTP mutant; source: E. coli STBL2 or Rosetta(DE3)pLacI, purified (glutathione-agarose); not shown: GST, N-terminal, kept
Take B4: in the experiment with hexahistidine-PAP-myc, the binding result is “binds”.

B5: N-terminally glutathione S-transferase-tagged wild-type TTP (natural protein, mouse, UniProt P22893 2-319, looked up)
chain: DLSAIYESLQSMSHDLSSDHGGTESLGGLWNINSDSIPSGVTSRLTGRSTSLVEGRSCGWVPPPPGFAPLAPRPGPELSPSPTSPTATPTTSSRYKTELCRTYSESGRCRYGAKCQFAHGLGELRQANRHPKYKTELCHKFYLQGRCPYGSRCHFIHNPTEDLALPGQPHVLRQSISFSGLPSGRRSSPPPPGFSGPSLSSCSFSPSSSPPPPGDLPLSPSAFSAAPGTPVTRRDPNQACCPSCRRSTTPSTIWGPLGGLARSPSAHSLGSDPDDYASSGSSLGGSDSPVFEAGVFGPPQTPAPPRRLPIFNRISVSE
notes: also called WT GST-TTP; GST-TTP; source: E. coli STBL2 or Rosetta(DE3)pLacI, purified (glutathione-agarose); not shown: GST, N-terminal, kept
Regarding B5, in the experiment with (His)6-PABPN1 (mouse), the in vitro polyadenylation of TNFα-ARE A20 RNA by (His)6-PAP-myc with (His)6-PABPN1: reduction of the processive addition of adenosines by GST-TTP at 2 and 5 min was found to be 45%. Moreover, the binding result with hexahistidine-PAP-myc was “binds”. Besides, the amount of TTP pulled down with (His)6-PAP-myc present, against TTP alone in experiment [1] worked out at 80%.

B6: GST-TTP@2-319(F118N) (natural protein, mouse, UniProt P22893 2-319, looked up)
chain: DLSAIYESLQSMSHDLSSDHGGTESLGGLWNINSDSIPSGVTSRLTGRSTSLVEGRSCGWVPPPPGFAPLAPRPGPELSPSPTSPTATPTTSSRYKTELCRTYSESGRCRYGAKCQNAHGLGELRQANRHPKYKTELCHKFYLQGRCPYGSRCHFIHNPTEDLALPGQPHVLRQSISFSGLPSGRRSSPPPPGFSGPSLSSCSFSPSSSPPPPGDLPLSPSAFSAAPGTPVTRRDPNQACCPSCRRSTTPSTIWGPLGGLARSPSAHSLGSDPDDYASSGSSLGGSDSPVFEAGVFGPPQTPAPPRRLPIFNRISVSE
notes: as for B1
On to B6, for which the binding result in the experiment with hexahistidine-PAP-myc is recorded as “binds”.

The values above are taken from paper PMC3406032, “Tristetraprolin Inhibits Poly(A)-Tail Synthesis in Nuclear mRNA that Contains AU-Rich Elements by Interacting with Poly(A)-Binding Protein Nuclear 1” (PLoS ONE, 2012).
